Values belong to the molecule of their own block, whether it stands above or below them.
Experiments:
[1] = target: recombinant Synechocystis 6803 aconitase (AcnB), His-tagged (Synechocystis sp. PCC 6803) (UniProt P74582)
purified protein = substrate: O=C(O)/C=C(/CC(=O)O)C(=O)O; assay: purified protein; type: biochemical, Synechocystis sp. PCC 6803; conditions: 10 mM DTT (reducing), no AcnSP, 50 mM Tris-malate pH 7.5, 30°C, 0.3 mM NADP+, 2 mM Na2EDTA, 10 mM MnCl2

Kcat of aconitase with 2 nmol AcnSP added to 2 nmol AcnB, oxidizing conditions (−DTT); control without AcnSP 3.46 [1]: 3.15 s^–1
Kcat of aconitase with 2 nmol AcnSP added to 2 nmol AcnB, reducing conditions (+10 mM DTT); control without AcnSP 14.92 [1]: 13.8 s^–1
Molecule: synthetic AcnSP peptide (aconitase small protein)

B1: recombinant AcnB (aconitase B, Slr0665) (Synechocystis sp. PCC 6803 substr. Kazusa) (protein)
chain: MLQAYRRHVADRQKLGIPPLPLNAQQTTELCELLKNPPEAEKEELMMLLRDRVPPGVDEAAYVKAGFLTAIAKGEVTCPLISGQGAVDLLGTMIGGYNVQSLIELLKSKDTNIASAAATALSKTLLVFDAFNDVLHLSDTNGYAKQVIDAWAEGAWFINKPEVPERITVTVFKVPGETNTDDLSPAPHATTRPDIPLHALAMLEAKMPEGLGTIAELKQKGHPVAYVGDVVGTGSSRKSAINSVLWHIGTDIPFVPNKRAGGYILGGKIAPIFFNTAEDSGALPIECDVNQLNTGDVITIYPREGKITNKAGETITTFQLKPETILDEVRAGGRIPLLIGRALTDKTREALGLSPSPLFVRPTAPADTGKGFTLAQKMVGKACGVQGIRPGTSCEPIMTTVGSQDTTGPMTRDELKELACLGFNADLTLQTFCHTAAYPKPVDIKTHKDLPDFFSTRGGVALRPGDGIIHSWLNRMLLPDTVGTGGDSHTRFPLGISFPAGSGLVAFAAALGVMPLDMPESVLVKFTGELQPGVTLRDIVNAIPWVAMQQGKLTVGKGDKVNVFNGRIMEMEGLPDLKVEQAFELTDATAERSCSGSTIKLSEETVAEYLRSNVVLMKNMIARGYQDARTLLRRIAKMEEWLANPSLMSGDADAEYADVIEVNLDEIKEPIVAAPNDPDNVKLMSECAGDVIHEVFIGSCMTNIGHYRAAAKILEGAGTVKGRLWICPPTRMDEQQLREEGIYGIFAAAGARTEMPGCSLCMGNQARVEDGVTVFSTSTRNFNNRMGKGAQVYLGSAELAAVCALLGKIPTVEEYLAIVSEKVAPFEGELYRYLNFNEIDNFEDFGRVIPLDQMPKIEDILGMPVGAK
notes: full-length (868 aa), His-tagged from pET28a(+) (NdeI/SalI), E. coli BL21 (DE3), Ni-NTA; medium supplemented with Fe-citrate for iron-sulfur centers
Km (purified protein): 371 ± 20 µM
Vmax (purified protein): 9.04 µmol/min/mg
kcat (purified protein): 14.9 s⁻¹
